Data: patent US20230167455

T1: EB2 protein (endogenous target of CDKL5 in mouse brain), Q8R001
T1 chain: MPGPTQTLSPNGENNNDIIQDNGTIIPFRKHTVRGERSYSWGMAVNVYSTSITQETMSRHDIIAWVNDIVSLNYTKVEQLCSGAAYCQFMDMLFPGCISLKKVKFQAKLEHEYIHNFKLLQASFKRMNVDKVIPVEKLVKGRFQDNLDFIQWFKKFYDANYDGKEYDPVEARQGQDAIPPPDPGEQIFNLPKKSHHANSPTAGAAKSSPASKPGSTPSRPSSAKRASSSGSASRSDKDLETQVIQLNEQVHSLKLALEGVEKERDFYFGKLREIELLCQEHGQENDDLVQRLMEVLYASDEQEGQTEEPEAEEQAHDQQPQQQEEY

B1: human CDKL5, isoform 2 (protein)
chain: MKIPNIGNVMNKFEILGVVGEGAYGVVLKCRHKETHEIVAIKKFKDSEENEEVKETTLRELKMLRTLKQENIVELKEAFRRRGKLYLVFEYVEKNMLELLEEMPNGVPPEKVKSYIYQLIKAIHWCHKNDIVHRDIKPENLLISHNDVLKLCDFGFARNLSEGNNANYTEYVATRWYRSPELLLGAPYGKSVDMWSVGCILGELSDGQPLFPGESEIDQLFTIQKVLGPLPSEQMKLFYSNPRFHGLRFPAVNHPQSLERRYLGILNSVLLDLMKNLLKLDPADRYLTEQCLNHPTFQTQRLLDRSPSRSAKRKPYHVESSTLSNRNQAGKSTALQSHHRSNSKDIQNLSVGLPRADEGLPANESFLNGNLAGASLSPLHTKTYQASSQPGSTSKDLTNNNIPHLLSPKEAKSKTEFDFNIDPKPSEGPGTKYLKSNSRSQQNRHSFMESSQSKAGTLQPNEKQSRHSYIDTIPQSSRSPSYRTKAKSHGALSDSKSVSNLSEARAQIAEPSTSRYFPSSCLDLNSPTSPTPTRHSDTRTLLSPSGRNNRNEGTLDSRRTTTRHSKTMEELKLPEHMDSSHSHSLSAPHESFSYGLGYTSPFSSQQRPHRHSMYVTRDKVRAKGLDGSLSIGQGMAARANSLQLLSPQPGEQLPPEMTVARSSVKETSREGTSSFHTRQKSEGGVYHDPHSDDGTAPKENRHLYNDPVPRRVGSFYRVPSPRPDNSFHENNVSTRVSSLPSESSSGTNHSKRQPAFDPWKSPENISHSEQLKEKEKQGFFRSMKKKKKKSQTTDSTNGENPSIKKSLFPLFNSKNHLKHSSSLKKLPVVTPPMVPNSDSPDLLTLQKSIHSASTPSSRPKEWRPEKISDLQTQSQPLKSLRKLLHLSSASNHPASSDPRFQPLTAQQTKNSFSEIRIHPLSQASGGSSNIRQEPAPKGRPALQLPGQMDPGWHVSSVTRSATEGPSYSEQLGAKSGPNGHPYNRTNRSRMPNLNDLKETAL
B2: human CDKL5, isoform 4 (protein)
chain: MKIPNIGNVMNKFEILGVVGEGAYGVVLKCRHKETHEIVAIKKFKDSEENEEVKETTLRELKMLRTLKQENIVELKEAFRRRGKLYLVFEYVEKNMLELLEEMPNGVPPEKVKSYIYQLIKAIHWCHKNDIVHRDIKPENLLISHNDVLKLCDFGFARNLSEGNNANYTEYVATRWYRSPELLLGAPYGKSVDMWSVGCILGELSDGQPLFPGESEIDQLFTIQKVLGPLPSEQMKLFYSNPRFHGLRFPAVNHPQSLERRYLGILNSVLLDLMKNLLKLDPADRYLTEQCLNHPTFQTQRLLDRSPSRNQAGKSTALQSHHRSNSKDIQNLSVGLPRADEGLPANESFLNGNLAGASLSPLHTKTYQASSQPGSTSKDLTNNNIPHLLSPKEAKSKTEFDFNIDPKPSEGPGTKYLKSNSRSQQNRHSFMESSQSKAGTLQPNEKQSRHSYIDTIPQSSRSPSYRTKAKSHGALSDSKSVSNLSEARAQIAEPSTSRYFPSSCLDLNSPTSPTPTRHSDTRTLLSPSGRNNRNEGTLDSRRTTTRHSKTMEELKLPEHMDSSHSHSLSAPHESFSYGLGYTSPFSSQQRPHRHSMYVTRDKVRAKGLDGSLSIGQGMAARANSLQLLSPQPGEQLPPEMTVARSSVKETSREGTSSFHTRQKSEGGVYHDPHSDDGTAPKENRHLYNDPVPRRVGSFYRVPSPRPDNSFHENNVSTRVSSLPSESSSGTNHSKRQPAFDPWKSPENISHSEQLKEKEKQGFFRSMKKKKKKSQTTDSTNGENPSIKKSLFPLFNSKNHLKHSSSLKKLPVVTPPMVPNSDSPDLLTLQKSIHSASTPSSRPKEWRPEKISDLQTQSQPLKSLRKLLHLSSASNHPASSDPRFQPLTAQQTKNSFSEIRIHPLSQASGGSSNIRQEPAPKGRPALQLPGQMDPGWHVSSVTRSATEGPSYSEQLGAKSGPNGHPYNRTNRSRMPNLNDLKETAL
B3: human CDKL5, isoform 3 (protein)
chain: MKIPNIGNVMNKFEILGVVGEGAYGVVLKCRHKETHEIVAIKKFKDSEENEEVKETTLRELKMLRTLKQENIVELKEAFRRRGKLYLVFEYVEKNMLELLEEMPNGVPPEKVKSYIYQLIKAIHWCHKNDIVHRDIKPENLLISHNDVLKLCDFGFARNLSEGNNANYTEYVATRWYRSPELLLGAPYGKSVDMWSVGCILGELSDGQPLFPGESEIDQLFTIQKVLGPLPSEQMKLFYSNPRFHGLRFPAVNHPQSLERRYLGILNSVLLDLMKNLLKLDPADRYLTEQCLNHPTFQTQRLLDRSPSRNQAGKSTALQSHHRSNSKDIQNLSVGLPRADEGLPANESFLNGNLAGASLSPLHTKTYQASSQPGSTSKDLTNNNIPHLLSPKEAKSKTEFDFNIDPKPSEGPGTKYLKSNSRSQQNRHSFMESSQSKAGTLQPNEKQSRHSYIDTIPQSSRSPSYRTKAKSHGALSDSKSVSNLSEARAQIAEPSTSRYFPSSCLDLNSPTSPTPTRHSDTRTLLSPSGRNNRNEGTLDSRRTTTRHSKTMEELKLPEHMDSSHSHSLSAPHESFSYGLGYTSPFSSQQRPHRHSMYVTRDKVRAKGLDGSLSIGQGMAARANSLQLLSPQPGEQLPPEMTVARSSVKETSREGTSSFHTRQKSEGGVYHDPHSDDGTAPKENRHLYNDPVPRRVGSFYRVPSPRPDNSFHENNVSTRVSSLPSESSSGTNHSKRQPAFDPWKSPENISHSEQLKEKEKQGFFRSMKKKKKKSQTVPNSDSPDLLTLQKSIHSASTPSSRPKEWRPEKISDLQTQSQPLKSLRKLLHLSSASNHPASSDPRFQPLTAQQTKNSFSEIRIHPLSQASGGSSNIRQEPAPKGRPALQLPGQMDPGWHVSSVTRSATEGPSYSEQLGAKSGPNGHPYNRTNRSRMPNLNDLKETAL
B4: human CDKL5, isoform 1 (protein)
chain: MKIPNIGNVMNKFEILGVVGEGAYGVVLKCRHKETHEIVAIKKFKDSEENEEVKETTLRELKMLRTLKQENIVELKEAFRRRGKLYLVFEYVEKNMLELLEEMPNGVPPEKVKSYIYQLIKAIHWCHKNDIVHRDIKPENLLISHNDVLKLCDFGFARNLSEGNNANYTEYVATRWYRSPELLLGAPYGKSVDMWSVGCILGELSDGQPLFPGESEIDQLFTIQKVLGPLPSEQMKLFYSNPRFHGLRFPAVNHPQSLERRYLGILNSVLLDLMKNLLKLDPADRYLTEQCLNHPTFQTQRLLDRSPSRSAKRKPYHVESSTLSNRNQAGKSTALQSHHRSNSKDIQNLSVGLPRADEGLPANESFLNGNLAGASLSPLHTKTYQASSQPGSTSKDLTNNNIPHLLSPKEAKSKTEFDFNIDPKPSEGPGTKYLKSNSRSQQNRHSFMESSQSKAGTLQPNEKQSRHSYIDTIPQSSRSPSYRTKAKSHGALSDSKSVSNLSEARAQIAEPSTSRYFPSSCLDLNSPTSPTPTRHSDTRTLLSPSGRNNRNEGTLDSRRTTTRHSKTMEELKLPEHMDSSHSHSLSAPHESFSYGLGYTSPFSSQQRPHRHSMYVTRDKVRAKGLDGSLSIGQGMAARANSLQLLSPQPGEQLPPEMTVARSSVKETSREGTSSFHTRQKSEGGVYHDPHSDDGTAPKENRHLYNDPVPRRVGSFYRVPSPRPDNSFHENNVSTRVSSLPSESSSGTNHSKRQPAFDPWKSPENISHSEQLKEKEKQGFFRSMKKKKKKSQTVPNSDSPDLLTLQKSIHSASTPSSRPKEWRPEKISDLQTQSQPLKSLRKLLHLSSASNHPASSDPRFQPLTAQQTKNSFSEIRIHPLSQASGGSSNIRQEPAPKGRPALQLPGQMDPGWHVSSVTRSATEGPSYSEQLGAKSGPNGHPYNRTNRSRMPNLNDLKETAL

Target: T1, EB2 protein (endogenous target of CDKL5 …)

| Protein | EB2 phosphorylation levels (Western blot, Cdkl5-ko mouse brain) | ability to phosphorylate EB2 (mouse brain) | EB2 phosphorylation (Cdkl5(D471fs) mouse brain, 3 months after AAV) | EB2 phosphorylation (Cdkl5(R59X) mouse brain, 3 months after AAV) | kinase activity, blotting for phosphorylated EB2 (Cdkl5-ko mouse brain, 3 months after AAV) | phosphorylation of EB2 (Western blot of mouse brain, pS222EB2) |
| --- | --- | --- | --- | --- | --- | --- |
| B1 | EB2 phosphorylation levels generated by isoform 2 were slightly higher | All tested plasmids expressed well in mouse brain, showing minor differences in ability to phosphorylate EB2 (measurement of CDKL5 kinase activity) | – | – | – | – |
| B2 | by isoforms three or 4 slightly lower compared to isoform 1 | All tested plasmids expressed well in mouse brain, showing minor differences in ability to phosphorylate EB2 (measurement of CDKL5 kinase activity) | – | – | – | – |
| B3 | by isoforms three or 4 slightly lower compared to isoform 1 | All tested plasmids expressed well in mouse brain, showing minor differences in ability to phosphorylate EB2 (measurement of CDKL5 kinase activity) | – | – | – | – |
| B4 | – | All tested plasmids expressed well in mouse brain, showing minor differences in ability to phosphorylate EB2 (measurement of CDKL5 kinase activity) | showed robust hCDKL5 protein expression and EB2 phosphorylation 3 months later | showed robust hCDKL5 protein expression and EB2 phosphorylation 3 months later | human CDKL5 showed robust kinase activity when blotting for phosphorylated EB2 protein | CDKL5 was fully active, as determined by its ability to phosphorylate its endogenous target EB2 protein |
